Experimental data reported in US20130245224A1.
Values joined by “and” are separate entries in the source; they are usually repeats but may differ in a detail not shown here. Equal entries are not always repeated.

How the values were obtained:
[1] = target: Gammanorm 165 mg/ml (Octapharma), diluted to 1 mg/ml in Equilibration buffer; experiment: column breakthrough, ligand on agarose, residence time 2.4 min
[2] = target: Gammanorm 165 mg/ml (Octapharma), diluted to 1 mg/ml in Equilibration buffer; experiment: column breakthrough, ligand on agarose, residence time 6.0 min

Regular Z2: ligand dimer containing two copies of protein Z (SEQ ID No. 3 but without the P57I substitutions) (designed binder)
Qb5 (dynamic binding capacity at 5% breakthrough) [1]: 28.5 mg/ml resin and 29.9 mg/ml resin
Qb10 (dynamic binding capacity at 10% breakthrough) [1]: 31.4 mg/ml resin and 32.2 mg/ml resin
Qb80 (dynamic binding capacity at 80% breakthrough) [1]: 43.8 mg/ml resin and 46.1 mg/ml resin
Qb5 (dynamic binding capacity at 5% breakthrough) [2]: 38.1 mg/ml resin and 38.5 mg/ml resin
Qb10 (dynamic binding capacity at 10% breakthrough) [2]: 40.6 mg/ml resin and 40.4 mg/ml resin
Qb80 (dynamic binding capacity at 80% breakthrough) [2]: 46.7 mg/ml resin and 47.1 mg/ml resin
